Data on four molecules can be found in PMC6880778.

The target in assay [1] is ecto-PfGAMA (N25-G715) (P. falciparum). As to the kind of experiment: SPR; Biacore X100, CM5 chip; PfGAMA as ligand, analyte in single-cycle kinetics at 0.16, 0.8, 4, 20 and 100 nM; global fit to a 1:1 binding model. On the technique in general: Surface plasmon resonance follows binding to a sensor surface in real time, without labels.
The target of assay [2] is recombinant ecto-PfGAMA (N25-G715) (P. falciparum).
Assay [3] has the same target. Kind of assay: SPR; Biacore X100, CM5 chip; recombinant PfGAMA as ligand, PfMSP10 protein as analyte; single-cycle kinetics at 0.16, 0.8, 4, 20 and 100 nM; global fitting in a 1:1 binding model.

For orientation: Kd means the equilibrium constant for the complex coming apart. The koff is the rate constant with which the complex falls apart. Low readings indicate a long-lived complex, high ones a short-lived complex. One may read the kon as a measure of how fast the partners come together.

In assay [1], “PfMSP10 R1 (D29-N188) (domain or fragment)” displayed a Kd of 648 nM, a koff of 0.000355 s⁻¹ and a kon of 548 M⁻¹ s⁻¹.

In assay [1], “ecto-PfMSP10 (D29-Q507) (domain or fragment)” yielded a Kd of 99.7 nM, a koff of 0.0015 s⁻¹ and a kon of 15000 M⁻¹ s⁻¹.

B1: PfMSP10 region 1 (R1, D29-N188) (domain or fragment)
chain: DDIKNTSQKKITYDKYNKNKENMNNEKNDNKDNKDNIYNDNINNDNINNDNINNEDEYKFLSMKHYKDSLSNKLNNENDHMNYLIRKRKDNTQGSQHFNENIENNENVENNENIENNENNENIENIENNENNENNENIENNENNENNENSSIMNSESYNN
With B1, in assay [2], the GIA activity (growth inhibition of cultured P. falciparum parasites) of 20 mg/ml rabbit antibodies raised against PfMSP10 R1 turned out to be 11%. For the same molecule, in assay [3], the Kd stood at 650 nM.

B2: recombinant ecto-PfMSP10 (D29-Q507) (domain or fragment)
chain: DDIKNTSQKKITYDKYNKNKENMNNEKNDNKDNKDNIYNDNINNDNINNDNINNEDEYKFLSMKHYKDSLSNKLNNENDHMNYLIRKRKDNTQGSQHFNENIENNENVENNENIENNENNENIENIENNENNENNENIENNENNENNENSSIMNSESYNNIINSNEHNEEQIKKKEEDLIEAFFPFILKKLDNESLSLDNKYDDYYNLPNDHNDTHKENSSDHNLLGYKLGNNLKSYLIEENDVSQKKTDDINESASSDSENIQEILSTDSNTSHLKERKNQKAPPGEHKPEVKNALLNSQVASPKGEDEKKSQPQHPLVNSGDQLQHPKEIDENAEKIRRTLLKESRDIKNTTAIIDETVYKFEQLIMKGRYYATAVRNFVIFKVNYICEYSKCGPNSRCYIVEKDKEQCRCRPNYIVDMSVNYFKCIPMKDMNCSKNNGGCDVNAECTIVEGAVKCQCSHLYFGDGVFCVKNSQTKQ
Take B2: the Kd in assay [3] came to 100 nM.
